# Assay results taken from paper PMC6222848, “Spatial Overlap of Claudin- and Phosphatidylinositol Phosphate-Binding Sites on the First PDZ Domain of Zonula Occludens 1 Studied by NMR” (Molecules : A Journal of Synthetic Chemistry and Natural …, 2018).
# B1: GST-tagged mouse ZO-1(PDZ1) (residues 18–110) [mouse] / His6-tagged thioredoxin (Trx) fusion protein of mouse CLD-3 C-terminus (Trx-CLD3, residues 210–219) [mouse] (parent complex)
# chain 1: IWEQHTVTLHRAPGFGFGIAISGGRDNPHFQSGETSIVISDVLKGGPAEGQLQENDRVAMVNGVSMDNVEHAFAVQQLRKSGKNAKITIRRKK
# chain 2: GTAYDRKDYV
# Variants of: B1
# Test: SPR; absence of phytic acid (gray bar); parent: 1.2e+03; read off a plot
row,Variant,response
1,chain 1 L43A,~28 RU
2,chain 1 D41A,~110 RU
3,chain 1 F17A,~15 RU

# The next lines start with the values.
row,response,Variant
1,~40 RU,chain 1 R79A
2,~22 RU,chain 1 V75A
